In patent US20190300576A1 (MIT, published 2019):
*1 amine or outer side, *2 acyl side, *3 side chain or, on linkers, in order; H or OH if unused. Bridges are numbered along the chain shown (N, C = ends). Where no end group is shown, it is not given here. [ ]: non-standard residue; d: D form. The star is where a group is joined. Hexa = hexylalanine = (2S)-2-aminononanoic acid, CCCCCCC[C@H](N[*:1])C(=O)[*:2]; Biotin = O=C1N[C@H]2[C@H](CS[C@H]2CCCCC(=O)*)N1; perfluorosulfone = not defined here; R8 = C=CCCCCCC[C@@](C)(N)C(=O)O; F2f = difluoro-L-phenylalanine; Cba = N[C@@H](CC1CCC1)C(=O)O; S5 = C=CCCC[C@](C)(N)C(=O)O; Anta = not defined here; Napa = not defined here; Dap = NC[C@H](N)C(=O)O; F3f = not defined here

How the values were obtained:
[1] = molecular target: MDM2 in MDM2 overexpressing SJSA-1 cells (UniProt Q00987 1-491, limits assumed); assay: cell-based or functional assay
SUMO-^25-109MDM2 [2] = molecular target: T1, SUMO-^25-109MDM2 (UniProt Q00987 25-109); assay: BLI, peptide on streptavidin sensors, global fit
T1 construct: range 25-109; Expressed in Rosetta (DE3) pLysS cells, MW=23 297 Da, used with the SUMO tag on; not shown: SUMO fusion tag (protein purified on Ni-NTA)

SUMO-^25-109MDM2 [3] = molecular target: T1, SUMO-^25-109MDM2; assay: BLI, immobilized assay for biotinylated peptide
SUMO-^25-109MDM2 [4] = molecular target: T1, SUMO-^25-109MDM2; assay: BLI, estimated in solution (competition assay) for acetylated construct
SUMO-^25-109MDM2 [5] = molecular target: T1, SUMO-^25-109MDM2; assay: BLI, biotinylated peptide immobilized
SUMO-^25-109MDM2 [6] = molecular target: T1, SUMO-^25-109MDM2; assay: BLI in-solution competition assay, free MDM2 read on immobilized 63a
SUMO-^25-109MDM2 [7] = molecular target: T1, SUMO-^25-109MDM2; assay: BLI, acetylated peptide (in solution competition assay)

Binder | IC50, viability of SJSA-1 cells [1] | Kd (SUMO-^25-109MDM2 [2]) | also measured
Ac-LT[F2f][R8]EY[Hexa]AQ[Cba][S5]SAA-NH2 (staple 4-11) [peptide 10b-M] | 2400 nM | – | –
Ac-LT[F2f][R8]EY[Napa]AE[Cba]KSAA-NH2 (staple (positions not given here); not fully specified (residue 11, bridges); reading uncertain) [peptide 27b-M] | 2700 nM | – | –
Ac-LT[F2f]KEY[Hexa]AQ[Cba]KSAA-NH2 (linker 4-11 via perfluorosulfone; reading uncertain; also: printed as LT(F2f)KEY(Hexa)AQ(Cba)(K)SAA) [peptide 10b-S4] | > 20000 nM | – | –
Ac-LT[F2f]KEY[Napa]AQ[Cba]KSAA-NH2 (linker 4-11 via perfluorosulfone; reading uncertain) [27b-S4] | > 20000 nM | – | –
Biotin-LT[F2f][R8]EY[Hexa]AQ[Cba][S5]SAA-NH2 (staple 4-11, Macrocyclic) [peptide 10a-M] | – | 5 nM | Kd (SUMO-^25-109MDM2 [3]): 3 nM
Ac-LT[F2f][R8]EFWAQ[Cba][S5]SAA-NH2 (staple 4-11) [peptide 11b-M] | 3200 nM | – | –
Ac-LT[F2f][Dap]EYWAQ[Cba][Dap]SAA-NH2 (linker 4-11 via perfluoroaryl sulfone, Macrocyclic) [peptide 11b-S1] | 7800 nM | – | Kd (SUMO-^25-109MDM2 [4]): 1 nM
LTF[R8]EYWAE[Cba][S5]SAA-NH2 (staple 4-11; N-terminus assumed; SMILES CC(C)C[C@H](N)C(=O)N[C@H](C(=O)N[C@@H](Cc1ccccc1)C(=O)N[C@]1(C)CCCCCCC=CCCC[C@@](C)(C(=O)N[C@@H](CO)C(=O)N[C@@H](C)C(=O)N[C@@H](C)C(N)=O)NC(=O)[C@H](CC2CCC2)NC(=O)[C@H](CCC(=O)O)NC(=O)[C@H](C)NC(=O)[C@H](Cc2c[nH]c3ccccc23)NC(=O)[C@H](Cc2ccc(O)cc2)NC(=O)[C@H](CCC(=O)O)NC1=O)[C@@H](C)O) [peptide ATSP-7040] | 3000 nM | – | –
Ac-LT[F2f][R8]EY[Hexa]AQ[Cba][S5]SAA-NH2 (bridges not given here) [peptide 10b-M unclosed] | 17000 nM | – | –
Ac-LT[F2f][Dap]EY[Hexa]AQ[Cba][Dap]SAA-NH2 (bridge 4-11 via perfluorosulfone; reading uncertain) [peptide 10b-S1] | > 20000 nM | – | –
Ac-LT[F2f]KEYWAE[Cba]KSAA-NH2 (linker 4-11 via perfluorosulfone; reading uncertain; also: printed as LT(F2f)KEYWAE(Cba)KSAA) [peptide 11b-S4] | > 20000 nM | – | –
Biotin-LTFPHYWAELTSK-NH2 (SMILES CC(C)C[C@H](NC(=O)CCCC[C@@H]1SC[C@@H]2NC(=O)N[C@@H]21)C(=O)N[C@H](C(=O)N[C@@H](Cc1ccccc1)C(=O)N1CCC[C@H]1C(=O)N[C@@H](Cc1c[nH]cn1)C(=O)N[C@@H](Cc1ccc(O)cc1)C(=O)N[C@@H](Cc1c[nH]c2ccccc12)C(=O)N[C@@H](C)C(=O)N[C@@H](CCC(=O)O)C(=O)N[C@@H](CC(C)C)C(=O)N[C@H](C(=O)N[C@@H](CO)C(=O)N[C@@H](CCCCN)C(N)=O)[C@@H](C)O)[C@@H](C)O) [peptide 3a] | – | – | Kd (SUMO-^25-109MDM2 [5]): 80 nM
Ac-LTFEHYWAQYTSK-NH2 [peptide 7b] | – | – | Kd (SUMO-^25-109MDM2 [6]): 490 nM
Ac-LTLEHYWAQLTSK-NH2 (Text says 3Phe to Leu or Tyr (8a and 9a)) [peptide 8b] | – | – | Kd (SUMO-^25-109MDM2 [6]): 2500 nM; Kd (SUMO-^25-109MDM2 [7]): 2700 nM
Ac-LTYEHYWAQLTSK-NH2 (Text says 3Phe to Leu or Tyr (8a and 9a)) [peptide 9b] | – | – | Kd (SUMO-^25-109MDM2 [6]): 8700 nM
Biotin-LT[F2f]EHY[Hexa]AQ[Cba]TSK-NH2 [peptide 10a] | – | 0.5 nM | –
Biotin-LT[F3f]EHY[Anta]AQ[Cba]TSK-NH2 (reading uncertain; also: printed as LT(F3f)EHY(Anta)AQ(Cba)TSK) [peptide 22a] | – | 10 nM | –
Biotin-LT[F2f]EHYWAQ[F2f]TSK-NH2 [peptide 25a] | – | 20 nM | –
Biotin-LT[F2f]EHYWAQ[Cba]TSK-NH2 [peptide 11a] | – | 2 nM | –
Biotin-LT[F2f]EHYWAQ[Hexa]TSK-NH2 [peptide 19a] | – | 8 nM | –
